Consider ten substances from patent publication US20100233191.

The subject of data set [1] is wild-type proaerolysin from Aeromonas hydrophila.
In data set [2] the test system is MPP5 (histidine-tagged modified proaerolysin with a PSA cleavage site).
The subject of data set [3] is MPP1 (proaerolysin with the furin site replaced by the PSA substrate HSSKLQ).

Sequence of MMP-7 (P09237 95-267): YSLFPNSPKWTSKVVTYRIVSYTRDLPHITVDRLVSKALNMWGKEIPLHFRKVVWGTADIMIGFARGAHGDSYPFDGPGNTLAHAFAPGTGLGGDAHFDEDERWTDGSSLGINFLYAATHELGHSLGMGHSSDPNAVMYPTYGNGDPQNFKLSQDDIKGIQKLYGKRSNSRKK

In data set [1], Cathepsin B (cysteine protease) displayed an Amount Required for 50% Cleavage of Native Proaerolysin of 51.6 units and a Specific Activity Towards Proaerolysin of 3.9 fmol/µg/min. In data set [2], this substance returned an Amount Required for 50% Cleavage of MPP5 of 170 units and a Specific Activity Towards MPP5 of 1.2 fmol/µg/min.

In data set [1], Chymotrypsin registered an Amount Required for 50% Cleavage of Native Proaerolysin of 3 µg and a Specific Activity Towards Proaerolysin of 1550 nM/µg/min. In addition, in data set [2], the Amount Required for 50% Cleavage of MPP5 came to 31 µg and the Specific Activity Towards MPP5 came out at 150 nM/µg/min.

In data set [1], Furin showed an Amount Required for 50% Cleavage of Native Proaerolysin of 0.0012 µg and a Specific Activity Towards Proaerolysin of 9.69 nM/µg/min. Moreover, in data set [2], the Amount Required for 50% Cleavage of MPP5 was > 0.0032 µg and the Specific Activity Towards MPP5 came to 0.24 nM/µg/min.

As for MMP-7, in data set [1], the “Amount Required for 50% Cleavage of Native Proaerolysin” value was “Inactive” and the Specific Activity Towards Proaerolysin was determined as 0. For the same substance, in data set [2], the “Amount Required for 50% Cleavage of MPP5” value is “Inactive” and the Specific Activity Towards MPP5 is 0.

In data set [1], “Prostate-specific antigen (PSA), also referred as hK3” came in with an Amount Required for 50% Cleavage of Native Proaerolysin of 49.7 µg and a Specific Activity Towards Proaerolysin of 0.0156 nM/µg/min. In data set [3], the “hemolysis (ratio to Triton control), MPP1 10^-8 M pre-incubated with PSA in buffer” value is given as “about 45% hemolysis” and the “hemolysis, MPP1 in human plasma or plasma spiked with PSA (10,000 ng/ml)” value is reported as “no appreciable hemolysis (i.e. <1% of Triton control”. In addition, in data set [2], the Amount Required for 50% Cleavage of MPP5 was 12.2 µg and the Specific Activity Towards MPP5 was found to be 0.0635 nM/µg/min.

Take Thrombin: in data set [1], the Amount Required for 50% Cleavage of Native Proaerolysin was > 12 µg and the Specific Activity Towards Proaerolysin is < 7.8e-07 nM/µg/min. Also, in data set [2], the Amount Required for 50% Cleavage of MPP5 was > 12 µg and the Specific Activity Towards MPP5 is < 7.8e-07 nM/µg/min.

In data set [1], Trypsin (Type I trypsin) had an Amount Required for 50% Cleavage of Native Proaerolysin of 0.0095 µg and a Specific Activity Towards Proaerolysin of 489000 nM/µg/min. Moreover, in data set [2], the Amount Required for 50% Cleavage of MPP5 was 0.813 µg and the Specific Activity Towards MPP5 was 5700 nM/µg/min.

For the substance hK1 (activated by thermolysin), in data set [1], the Amount Required for 50% Cleavage of Native Proaerolysin turned out to be 2.63 µg and the Specific Activity Towards Proaerolysin was determined as 15.3 fmol/µg/min. Besides, in data set [2], the “Amount Required for 50% Cleavage of MPP5” value is recorded as “Inactive” and the Specific Activity Towards MPP5 was 0.

On to hK2 (human glandular kallikrein 2), for which the Specific Activity Towards Proaerolysin in data set [1] is 1610 fmol/µg/min. Further, in data set [2], the “Amount Required for 50% Cleavage of MPP5” value is recorded as “Inactive” and the Specific Activity Towards MPP5 worked out at 0.

In data set [1], uPA gave an Amount Required for 50% Cleavage of Native Proaerolysin of 7.79 µg and a Specific Activity Towards Proaerolysin of 25.8 fmol/µg/min. Further, in data set [2], the Amount Required for 50% Cleavage of MPP5 is 173 µg and the Specific Activity Towards MPP5 came out at 1.1 fmol/µg/min.
